Measurements from PMC9497064, “Model of the SARS-CoV-2 Virus for Development of a DNA-Modified, Surface-Enhanced Raman Spectroscopy Sensor with a Novel Hybrid Plasmonic Platform in Sandwich Mode”.

Columns and labels:
[1] = target: T1, RBD on Ag nanoparticles (RBD NP) (SARS-CoV-2 (Wuhan strain), UniProt P0DTC2 319-541); experiment: SERS sandwich; BLI ([…]; BLI ([…], room temperature; […]
[2] = target: T1, RBD on Ag nanoparticles (RBD NP); experiment: BLI; BLI ([…]; BLI ([…], room temperature; […]

Binder	binding result [1]	binding result [2]
Found-SH (ssDNA) DNA: CACCGCTTTTGCCTTTTGGGGACGGATATAGGGAAACACGATAGAATCCGAACAGCACC	binds	–
RBD-1C (biotinylated) (ssDNA) DNA: CAGCACCGACCTTGTGCTTTGGGAGTGCTGGTCCAAGGGCGTTAATGGACA	–	binds
RBD-1C-Cy3 (ssDNA) DNA: CAGCACCGACCTTGTGCTTTGGGAGTGCTGGTCCAAGGGCGTTAATGGACA	binds	–
